In patent US20120021993A1 (AJOU UNIVERSITY INDUSTRY ACADEMIC COOPERATION FOUNDATION, published 2012):

T1: DcR2 (UniProt Q9UBN6 56-211, limits assumed)
T1 sequence (looked up): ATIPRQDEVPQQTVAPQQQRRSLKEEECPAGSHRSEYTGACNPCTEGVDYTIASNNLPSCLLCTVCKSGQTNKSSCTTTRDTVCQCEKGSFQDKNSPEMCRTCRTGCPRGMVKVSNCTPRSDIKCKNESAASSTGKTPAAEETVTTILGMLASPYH

T2: DcR1 (UniProt O14798 26-221, limits assumed)
T2 sequence (looked up): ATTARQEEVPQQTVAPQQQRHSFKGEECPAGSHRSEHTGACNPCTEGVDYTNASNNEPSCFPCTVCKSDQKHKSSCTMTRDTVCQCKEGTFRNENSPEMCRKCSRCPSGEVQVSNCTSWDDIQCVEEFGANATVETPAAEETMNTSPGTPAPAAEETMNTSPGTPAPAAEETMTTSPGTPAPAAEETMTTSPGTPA


How the values were obtained:
DcR2 [1] = molecular target: T1, DcR2; experiment: yeast display, flow cytometry MFI [panel KD506]
DcR1 [2] = molecular target: T2, DcR1; experiment: yeast display, flow cytometry MFI [panel KD506]
[3] = molecular target: T3, human-derived cell death receptor 4, extracellular domain (amino acid residues 1-216), 6xHis tag (human, UniProt O00220 24-239); experiment: yeast display, flow cytometry MFI [panel KD506]
T3 construct: extracellular domain; Expressed in E. coli; biotinylated for sorting and flow cytometry; residues 1-216; also called DR4; TRAIL-receptor 1
T3 sequence (O00220 other isoform, or with tags, fused parts or gaps): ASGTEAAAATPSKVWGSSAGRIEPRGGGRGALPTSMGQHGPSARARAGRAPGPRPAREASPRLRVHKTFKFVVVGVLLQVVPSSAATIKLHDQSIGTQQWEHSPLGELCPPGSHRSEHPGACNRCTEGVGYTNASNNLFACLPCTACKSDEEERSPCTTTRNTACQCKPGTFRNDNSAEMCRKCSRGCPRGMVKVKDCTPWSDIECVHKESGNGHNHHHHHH

[4] = molecular target: T3, human-derived cell death receptor 4, …; experiment: ELISA, coated target, A405
Experimental: (§1) In order to measure the affinity and cross reactivity of the anti-DR4, -DR5 and -TNFα protein scaffold variants based on the Kringle domain structure to the target molecules, an enzyme-linked immunosorbent assay (ELISA) was performed. The target molecules DR4, DR5, TNFα and DcR1, DcR2 were attached to a 96 well EIA/RIA plate (COSTARCorning In., USA) by its reaction at 37° C. for 1 hour, and washed three times with 0.1% PBST (0.1% Tween20, pH 7.4, 137 mM NaCl, 10 mM Phosphate, 2.7 mM KCl, SIGMA-ALDRICH Co., USA) for 10 minutes. The target molecules were attached for 1 hour to a 96 well EIA/RIA plate in 1% PBSB (1% BSA, pH 7.4, 137 mM NaCl, 10 mM Phosphate, 2.7 mM KCl, SIGMA-ALDRICH Co., USA), and then washed three times with 0.1% PBST (0.1% Tween 20, pH 7.4, 137 mM NaCl, 10 mM Phosphate, 2.7 mM KCl, SIGMA-ALDRICH Co., USA) for 10 minutes. Then, the anti-DR4, -DR5 and -TNFα Kringle domain variants were bound, and washed three times with 0.1% PBST for 10 minutes. The anti-DR4, -DR5 and -TNFα Kringle domain variants were primarily bound to mouse-derived anti-c-myc 9e10 mAb (Ig Therapy, Korea), and secondarily bound to alkaline phosphatase (AP)-conjugated anti-mouse mAb (Sigma). Each of the Kringle domain variants was reacted with […] (pNPP, Sigma-aldrich Co., USA) and quantified at an absorbance of 405 nm.

DcR2 [5] = molecular target: T1, DcR2; experiment: ELISA, coated target, single binder concentration not given, A405
Experimental: as §1

DcR1 [6] = molecular target: T2, DcR1; experiment: as above
Experimental: as §1

DcR2 [7] = molecular target: T1, DcR2; experiment: yeast display, flow cytometry MFI [panel KD415]
DcR1 [8] = molecular target: T2, DcR1; experiment: yeast display, flow cytometry MFI [panel KD415]
[9] = molecular target: T3, human-derived cell death receptor 4, …; experiment: ELISA, coated target, single binder concentration not given, A405
Experimental: as §1

[10] = molecular target: T4, human-derived cell death receptor 5, extracellular domain (amino acid residues 1-130), 6xHis tag (human, UniProt O14763 56-210); experiment: ELISA, coated target, A405
T4 construct: extracellular domain; Expressed in E. coli; biotinylated for sorting and flow cytometry; also called DR5; TRAIL-receptor 2
T4 sequence (O14763 other isoform, or with tags, fused parts or gaps limits assumed, form in doubt): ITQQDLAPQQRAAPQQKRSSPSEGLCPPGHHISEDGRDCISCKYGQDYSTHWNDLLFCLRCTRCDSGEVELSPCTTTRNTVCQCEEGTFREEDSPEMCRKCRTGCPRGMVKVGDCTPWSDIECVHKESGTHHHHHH
Experimental: as §1

binding result (DcR2 [5])	binding result (DcR1 [6])	Binder	binding result [9]	other results
–	–	L1234 (KD506) (designed binder, also called KD506L1234) CPEDRGHEYDGDGDKTNRGHGCQYWDQNKPHHHGHRDKDKFKHRIKKNYCRNPDRELRPWCFTTDPNKRWELCDIPRC	–	binding result (DcR2 [1]): no binding; binding result (DcR1 [2]): no binding; binding result [3]: no binding
no binding	no binding	KD408 (designed binder) CDRHKGPKYDGFRDRTHKGHKCQYWDKPRPHHHGHKHGDEFRNRLGKNYCRNPDSQAEPWCFTHKDKYKYELCYQPRC	–	binding result [4]: binds
–	–	KD415L567 (designed binder) CMHCSGENYDGKISKTMSGLECQAWDSQSPHAHGYIPSKFPNKNLKKNYCRNPDPQDQPWCFTNRHQHKNELCNQPRC	–	binding result (DcR2 [7]): no binding; binding result (DcR1 [8]): no binding
–	–	L56 (KD506) (designed binder, also called KD506L56) CMHCSGENYDGKISKTMSGLECQAWDSQSPHAHGYIPSKFPNKNLKKNYCRNPDYETGPWCFTNRYRNKNELCDIPRC	–	binding result (DcR2 [1]): no binding; binding result (DcR1 [2]): no binding; binding result [3]: no binding
–	–	L5 (KD415) (designed binder, also called KD415L5) CMHCSGENYDGKISKTMSGLECQAWDSQSPHAHGYIPSKFPNKNLKKNYCRNPDPQDQPWCFTTDPNKRWELCDIPRC	–	binding result (DcR2 [7]): no binding; binding result (DcR1 [8]): no binding
–	–	KD506L567 (designed binder) CMHCSGENYDGKISKTMSGLECQAWDSQSPHAHGYIPSKFPNKNLKKNYCRNPDYETGPWCFTNRYRNKNELCHEPRC	–	binding result (DcR2 [1]): no binding; binding result (DcR1 [2]): no binding; binding result [3]: no binding
–	–	L5 (KD506) (designed binder, also called KD506L5) CMHCSGENYDGKISKTMSGLECQAWDSQSPHAHGYIPSKFPNKNLKKNYCRNPDYETGPWCFTTDPNKRWELCDIPRC	–	binding result (DcR2 [1]): no binding; binding result (DcR1 [2]): no binding; binding result [3]: no binding
–	–	KD459 (designed binder) CSRYRGHKYDGYKHRTYKGYQCQSWTKDKPHHHGIRHRNKIRDRFGKNYCRNPDTQNQPWCFTYGDEYRYELCNKPRC	–	EC50 (read off the curve) [4]: ~2000 nM
–	–	KD542 (designed binder, Soluble monomer from Pichia pastoris; not shown: C-terminal myc tag-6xHis tag of pPICZaA) CNRAGGHKYDGDRYRTHRGDGCQNWAKTKPHHHGIGHRDKIRDKYRKNYCRNPDAKNGPWCFTNRNGDKNELCIQPRC	binds	EC50 (read off the curve) [10]: ~5000 nM
no binding	no binding	KD537 (designed binder) CTRTKGAKYDGYKHRTHEGNKCQSWNKARPHLHGDRLGNKYEHKARKNYCRNPDNRAEPWCFTDKNQNQHELCYGPRC	no binding	–
no binding	no binding	KD409 (designed binder) CAKDKGDKYDGHKHKTNRGDKCQTWAKNRPHFHGHRFEVGHEHKIRKNYCRNPDDQDKPWCFTHGYRNQDELCDGPRC	binds	–
no binding	no binding	KD505 (designed binder, also called KDS05) CPEDQGDEYDGHEHKTHRGNRCQSWYRPKPHNHGHRIKDRYKYKVKKNYCRNPDTQARPWCFTNRHRDEHELCDQPRC	no binding	–
–	–	KDT08 (designed binder, Soluble monomer from Pichia pastoris; also called KRT08; not shown: C-terminal myc tag-6xHis tag of pPICZaA) CPKSGGNGYDGYKHGTNEGLQCQNWDRAKPHDHGIEVQNEYGDRHEKNNCRNPDDKTRPWCFTHKDRYRNELCYQPRC	no binding	–
no binding	no binding	KD503 (designed binder) CTQTKGHRYDGYKYETNWGHQCQAWTKHKPHLHGNGHRNRHKVGHEKNYCRNPDHRDGPWCFTNQYENENELCHQPRC	no binding	EC50 (read off the curve) [10]: ~400 nM
no binding	no binding	KD555 (designed binder, also called KDS55) CDGAQGNGYDGNKHKTHRGNKCQAWPKHGPHYHGNGDQDGHRNKHKKNYCRNPDTRSRPWCFTDQNGHKDELCHGPRC	no binding	–
no binding	–	KD404 (designed binder, Soluble monomer from Pichia pastoris; also called anti-DR4 Kringle domain variant KD404; not shown: C-terminal myc tag-6xHis tag of pPICZaA) CSRDKGYRYDGDGNKTLKGHKCQHWTKSKPHDHGYRHKLGNEDKFKKNYCRNPDTRAGPWCFTDQYRDRDELCYQPRC	–	EC50 (read off the curve) [4]: ~600 nM
no binding	no binding	KD421 (designed binder) CAGAEGNEYDGDKYKTHKGYRCQRWDKSRPHNHGNKDRHQHENKVGKNYCRNPDNEAEPWCFTDQHKHGNELCDRPRC	binds	–
no binding	no binding	KD456 (designed binder) CDKNRGNGYDGNEIQTDGGVQCQHWTKTKPHHHGLKLQHEHRVKHEKNYCRNPDARTQPWCFTDKHQHKDELCIEPRC	–	EC50 (read off the curve) [4]: ~2000 nM
–	–	L1234 (KD415) (designed binder, also called KD415L1234) CTRSKGDEYDGHKHKTNRGLRCQHWPGTKPHFHGDKIKDRHGFRLKKNYCRNPDRELRPWCFTTDPNKRWELCDIPRC	–	binding result (DcR2 [7]): no binding; binding result (DcR1 [8]): no binding
no binding	no binding	KD445 (designed binder) CHETKGHKYDGHRLRTNKGDRCQPWTKDKPHHHGFRDQYQVRYKLKKNYCRNPDDQNKPWCFTDGNQHEHELCNGPRC	binds	–
no binding	no binding	KD502 (designed binder) CAEDKGARYDGYQYRTHKGIKCQPWYQHEPHYHGHKDKIRHKNRNKKNYCRNPDAGDRPWCFTHRDKYEHELCNRPRC	no binding	EC50 (read off the curve) [10]: ~2000 nM
no binding	no binding	KD437 (designed binder) CAKSRGYKYDGNRYKTNKGDKCQAWTKTKPHDHGHRHGHGDRFRNRKNYCRNPDHESKPWCFTYRDRYRHELCNRPRC	binds	–
no binding	–	KD509 (designed binder) single chain: CAQSKGYRYDGDKDKTNKGHKCQDWAQNKPHVHGHRHEDRHQVKSRKNYCRNPDARARPWCFTNQVRYRNELCYKPRC	–	–
